{
  "source": "paper PMC11320570",
  "about": "(ACS Infectious Diseases, 2024)",
  "binders": {"B1": {"name": "2C8 mouse antibody (antibody, V domains shown)", "VH": "EVKLVESGGGLVQPGGSLSLSCAASGFTFTDYYMTWVRQPPGKALEWLALIRNKASGYTTEYSASVKGRFTISRDNSQSILYLQMNALRAEDSATYYCTRAKWDGHYFDYWGQGTTLTVSS", "VL": "DIQMTQSPASLSVSVGETVTITCRATKNIYNNLAWYQQKQGRSPQLLVYAATNLADGVPSRFSGSGSGTQFSLRINSLQSEDFGNYYCQHFWHTPWTFGGGTKLEIK", "notes": "Mouse IgG2a; source: hybridoma culture supernatant, purified (HiTrap protein-G HP)"}, "B2": {"name": "3H5 mouse antibody (antibody, V domains shown)", "VH": "QVQLQQSGAEVARPGASVKLSCKASGYTFTSYWLQWVKQRPGQGLEWIGAIWPGDDDTRYAQKFQGKATMTADKSSSTAYIQLSNLASEDSAVYYCARKGGFAMDYWGQGTSVTVSS", "VL": "NIVMTQSPTSLAVSLGQRATISCRASESVDSFGKSFMHFYQQKPGQPPKLLIHLASNLESGVPARFTGRGSRTDFTLTIDPVEADDAATYYCQQNNEVPFTFGSGTKLEVK"}, "B3": {"name": "513 engineered and humanized antibody (antibody, V domains shown)", "VH": "QVQLVQSGAEVKKPGASVKVSCKAGFNIKDVYMSWVRQAPEQGLEWMGRIDPENGDTKYDPKLQGRVTMTADTSTNTAYMELRSLRSDDTAVYYCARGWEGFAYWGQGTLVTVSS", "VL": "DIVMTQSPASLAVSLGQRATISCRASENVDKYGNSFMHWYQQKPGQPPKLLIYRASELQWGVPDRFSGSGSGTDFTLTISSLQAEDVAVYYCQRSNEVPWTFGQGTKLEIK"}},
  "key": {"[1]": {"molecular_target": "DENV-2 EDIII wild-type Fc-fusion antigen (Dengue virus type 2, strain 16681, UniProt P29990)", "test": "ELISA", "settings": "both partners purified"}, "[2]": {"molecular_target": "deglycosylated EDIII WT Fc-fusion antigen (Dengue virus type 2, strain 16681, UniProt P29990)", "test": "ELISA", "settings": "both partners purified"}},
  "data": [
    {"binder": "B1", "values": [
      {"measurement": "binding result", "setting": "[1]", "result": "binds"}
    ]},
    {"binder": "B2", "values": [
      {"measurement": "binding result", "setting": "[1]", "result": "binds"},
      {"measurement": "binding result", "setting": "[2]", "result": "binds"}
    ]},
    {"binder": "B3", "values": [
      {"measurement": "binding result", "setting": "[1]", "result": "binds"}
    ]}
  ]
}
